Test [1] has as its target T1, Wild-type human APP695 (β-amyloid precursor protein) (human, UniProt P05067-4 18-695).
T1 construct: also called full-length APP
In words: co-immunoprecipitation with anti-FLAG M2 from co-transfected 293T cells, western blot for APP with 5A3/1G7.

Test [2] deals with T2, APPΔC31 (N-terminal 664 amino acids of APP695) (human, UniProt P05067 18-664).
T2 construct: Used both for the deletion construct and for the product of caspase cleavage of APP at Asp664; also called APPdeltaC31; C-terminal truncated APP
In words: co-immunoprecipitation (anti-FLAG M2) from co-transfected 293T cells, western blot with 5A3/1G7.

Test [3] concerns the target T1, Wild-type human APP695 (β-amyloid …). The test is described as follows: co-immunoprecipitation with anti-FLAG M2 from co-transfected 293T cells, densitometry of the APP band.

B1: FLAG-tagged catalytic mutant caspase-7 (C186A) (enzyme, UniProt P55210 1-303, looked up)
chain: MADDQGCIEEQGVEDSANEDSVDAKPDRSSFVPSLFSKKKKNVTMRSIKTTRDRVPTYQYNMNFEKLGKCIIINNKNFDKVTGMGVRNGTDKDAEALFKCFRSLGFDVIVYNDCSCAKMQDLLKKASEEDHTNAACFACILLSHGEENVIYGKDGVTPIKDLTAHFRGDRCKTLLEKPKLFFIQAARGTELDDGIQADSGPINDTDANPRYKIPVEADFLFAYSTVPGYYSWRSPGRGSWFVQALCSILEEHGKDLEIMQILTRVNDRVARHFESQSDDPHFHEKKQIPCVVSMLTKELYFSQ
notes: FLAG tag present; also called C7
B1: the “quantitative densitometry intensity of co-immunoprecipitated APP” value (from here on “quantitative densitometry intensity”) in test [1] was determined as 1.

B2: FLAG-tagged catalytic mutant caspase-9 (C287A) (enzyme, UniProt P55211 1-416, looked up)
chain: MDEADRRLLRRCRLRLVEELQVDQLWDALLSRELFRPHMIEDIQRAGSGSRRDQARQLIIDLETRGSQALPLFISCLEDTGQDMLASFLRTNRQAAKLSKPTLENLTPVVLRPEIRKPEVLRPETPRPVDIGSGGFGDVGALESLRGNADLAYILSMEPCGHCLIINNVNFCRESGLRTRTGSNIDCEKLRRRFSSLHFMVEVKGDLTAKKMVLALLELAQQDHGALDCCVVVILSHGCQASHLQFPGAVYGTDGCPVSVEKIVNIFNGTSCPSLGGKPKLFFIQAAGGEQKDHGFEVASTSPEDESPGSNPEPDATPFQEGLRTFDQLDAISSLPTPSDIFVSYSTFPGFVSWRDPKSGSWYVETLDDIFEQWAHSEDLQSLLLRVANAVSVKGIYKQMPGCFNFLRKKLFFKTS
notes: FLAG tag present; also called C9
For B2, the “quantitative densitometry intensity” value in test [1] is 1.1.

B3: FLAG-tagged catalytic mutant caspase-8 (C360A) (enzyme, UniProt Q14790 1-479, looked up)
chain: MDFSRNLYDIGEQLDSEDLASLKFLSLDYIPQRKQEPIKDALMLFQRLQEKRMLEESNLSFLKELLFRINRLDLLITYLNTRKEEMERELQTPGRAQISAYRVMLYQISEEVSRSELRSFKFLLQEEISKCKLDDDMNLLDIFIEMEKRVILGEGKLDILKRVCAQINKSLLKIINDYEEFSKERSSSLEGSPDEFSNGEELCGVMTISDSPREQDSESQTLDKVYQMKSKPRGYCLIINNHNFAKAREKVPKLHSIRDRNGTHLDAGALTTTFEELHFEIKPHDDCTVEQIYEILKIYQLMDHSNMDCFICCILSHGDKGIIYGTDGQEAPIYELTSQFTGLKCPSLAGKPKVFFIQAAQGDNYQKGIPVETDSEEQPYLEMDLSSPQTRYIPDEADFLLGMATVNNCVSYRNPAEGTWYIQSLCQSLRERCPRGDDILTILTEVNYEVSNKDDKKNMGKQMPQPTFTLRKKLVFPSD
notes: Printed as 'caspase-S(C360A)', read as caspase-8; FLAG tag present; also called C8; caspase-S(C360A)
Consider B3, for which the binding result in test [2] is on record as “no binding”. In test [3], the “intensity relative to the other caspases tested” value was approximately 200%. Further, the “quantitative densitometry intensity” value in test [1] came to 2.2.

B4: FLAG-tagged catalytic mutant caspase-6 (C163A) (enzyme, UniProt P55212 1-293, looked up)
chain: MSSASGLRRGHPAGGEENMTETDAFYKREMFDPAEKYKMDHRRRGIALIFNHERFFWHLTLPERRGTCADRDNLTRRFSDLGFEVKCFNDLKAEELLLKIHEVSTVSHADADCFVCVFLSHGEGNHIYAYDAKIEIQTLTGLFKGDKCHSLVGKPKIFIIQAARGNQHDVPVIPLDVVDNQTEKLDTNITEVDAASVYTLPAGADFLMCYSVAEGYYSHRETVNGSWYIQDLCEMLGKYGSSLEFTELLTLVNRKVSQRRVDFCKDPSAIGKKQVPCFASMLTKKLHFFPKSN
notes: FLAG tag present; also called C6
For the molecule B4, the “quantitative densitometry intensity” value in test [1] turned out to be 1.2.

For the origin of these results see patent US20110104715A1 (published 2011).
